Results reported in the supplement of paper PMC11908140.

B1: library; numbered along this chain (parent)
chain: MRKPRAAVGSGHRKQAASQEGRQKHAKNNSQAKPSACDGLARQPEEVVLQASVSSYHLFRDVAEVTAFRGSLLSWYDQEKRDLPWRRRAEDEMDLDRRAYAVWVSEVMLQQTQVATVINYYTGWMQKWPTLQDLASASLEEVNQLWAGLGYYSRGRRLQEGARKVVEELGGHMPRTAETLQQLLPGVGRYTAGAIASIAFGQATGVVDGNVARVLCRVRAIGADPSSTLVSQQLWGLAQQLVDPARPGDFNQAAMELGATVCTPQRPLCSQCPVESLCRARQRVEQEQLLASGSLSGSPDVEECAPNTGQCHLCLPPSEPWDQTLGVVNFPRKASRKPPREESSATCVLEQPGALGAQILLVQRPNSGLLAGLWEFPSVTWEPSEQLQRKALLQELQRWAGPLPATHLRHLGEVVHTFSHIKLTYQVYGLALEGQTPVTTVPPGARWLTQEEFHTAAVSTAMKKVFRVYQGQQPGTCMGSKRSQVSSPCSRKKPRMGQQVLDNFFRSHISTDAHSLNSAAQ

Variants of: B1
Test: 8OG:A repair function score (normalized; synonymous = 0, nonsense = -1) (normalized log-likelihood score); higher = more repair activity (WT-like)
Settings: with 8OG:A DNA repair reporter (GFP) in HEK-293 MUTYH KO cells
Procedure: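 Saturation mutagenesis (NNN codon scan) of the MUTYH cDNA (521-aa nuclear isoform NM_001048174.1 / NP_001041639), stably expressed under doxycycline induction in HEK-293 MUTYH knockout cells. Cells were co-transfected with an 8OG:A-bearing GFP repair reporter plus mCherry and sorted 72 h later into GFP+ and GFP− bins, three replicates per tile. The Rosace log2 enrichment (GFP+ vs GFP−) was converted per tile to a normalized function score with synonymous variants centered at 0 and nonsense variants (codons 1-471) at -1; low-abundance variants were removed.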

Variant	8OG:A repair function score
R97Y	-0.0378
R97W	-0.346
R97S	-0.0417
R97Q	0.00692
R97T	-0.00706
R97V	0.00683
A99C	-0.408
A99E	-1.34
A99D	-3
A99Q	-2.46
A99R	-1.8
A99P	-0.584
A99S	-0.124
A99Y	-0.837
A99V	-0.708
A99N	-1.45
A99T	-0.459
A99I	-0.617
A99G	-0.0185
A99L	-0.788
A99K	-1.18
A99H	-1.07
A99M	-0.378
A99W	-1.08

Variant	8OG:A repair function score
A99F	-1.14
E106D	-0.903
E106F	-0.995
E106L	-1.25
E106G	-1.3
E106A	-0.944
E106H	-1.74
E106M	-0.994
E106C	-1.19
E106K	-1.45
E106I	-1.13
W103Q	-0.686
W103G	-0.73
W103D	-1.19
W103M	-0.283
W103S	-1.14
W103T	-0.833
W103R	-1.22
W103F	-0.399
W103N	-1.2
W103I	-1.17
W103P	-1.09
W103A	-0.808
W103C	-0.655

Variant	8OG:A repair function score
W103Y	-0.166
W103L	-0.377
W103V	-0.986
W103E	-1.13
W103H	-0.97
W103K	-1.37
Y100P	-2.33
Y100K	-1.96
Y100V	-1.41
Y100N	-1.17
Y100T	-1.56
Y100H	-1.01
Y100E	-1.42
Y100L	-1.29
Y100F	-0.679
Y100Q	-1.23
Y100G	-1.64
Y100C	-1.66
Y100S	-1.56
Y100M	-1.24
Y100D	-1.79
Y100A	-1.95
Y100R	-1.63
Y100I	-1.67

Variant	8OG:A repair function score
A101D	-0.0136
A101E	-0.00955
A101I	-0.0179
A101P	-0.398
A101Y	-0.0479
A101M	-0.0323
A101H	-0.0529
A101K	-0.0477
A101L	-0.0936
A101S	0.00626
A101F	-0.00851
A101W	-0.762
A101N	-0.0446
A101Q	-1.09
A101R	-0.0207
A101G	-0.024
A101C	-0.00146
A101V	-0.0177
A101T	-0.047
S105V	-0.566
S105W	-0.677
S105N	-0.802
S105Q	-0.69
S105M	-0.981

Variant	8OG:A repair function score
S105H	-0.786
S105P	-0.822
S105T	-0.804
S105R	-0.765
S105E	-0.676
S105Y	-1.24
S105C	-0.577
S105F	-1.43
S105G	-0.13
S105D	-0.841
S105A	-0.0215
S105I	-0.549
S105K	-1.25
S105L	-0.798
V102I	-0.00401
V102M	-0.352
V102H	-2.8
V102S	-0.376
V102A	-0.644
V102P	-1.21
V102C	-0.092
V102F	-0.714
V102D	-0.89
V102E	-1.11

Variant	8OG:A repair function score
V102N	-1.28
V102Y	-1.01
V102K	-1.71
V102T	-0.0943
V102R	-1.41
V102G	-1.36
V102W	-1.13
V102Q	-0.275
V102L	-0.259
R98L	-0.107
R98S	-0.2
R98N	-0.122
R98I	-0.145
R98W	-0.0663
R98G	-0.574
R98Y	-0.0815
R98H	-0.232
R98V	-0.16
R98C	-0.578
R98F	-0.114
R98D	-0.438
R98T	-0.164
R98A	-0.175
R98M	-0.316

Variant	8OG:A repair function score
R98P	-0.714
R98K	-0.0169
R98E	-0.275
R98Q	-0.236
V104T	-0.472
V104W	-0.707
V104Y	-1.27
V104N	-1.04
V104P	-1.01
V104G	-0.976
V104R	-1.11
V104C	-0.133
V104F	-1.1
V104L	-0.583
V104S	-0.759
V104M	-0.192
V104D	-1.33
V104K	-0.731
V104E	-0.936
V104Q	-1.17
V104I	-0.19
V104A	-0.365
V104H	-1.31
